The results in this text go back to patent US20210403601A1 (FAPON BIOTECH, published 2021).

B1: Anti-Taq 2C7 recombinant antibody (WT) (antibody, mouse IgG1, kappa, V domains shown)
VH: QVQLQQPGAELVKPGASVRLSCQTSVDTFSTYYLYWVKQRPGEGLEWIGGVNPTSNPVFDEKFKSKATLTVDTSSSTAYMQLSSLTSVDSAVYYCTRSILRRGYYPDYWGQGTALTVSS
VL: DIQMTQTTSSLSASLGDRVTISCRGSQDIQNYVNWYQQKPDGTIKLLIYFTSRLQSGIPSRFSGSGSGTDYSLTIANLEQEDIATYFCQQDDTIPVTWGAGTKVELKR
notes: Mouse antibody expressed in CHO cells; also called WT antibody; antibody of sample 1
B2: Mutation 1 (antibody, V domains shown)
VH: B1 VH with L34I, D60N, P106F
VL: B1 VL with G25A, F50Y, W98F
notes: also called mutation 1 antibody
B3: Mutation 2 (antibody, V domains shown)
VH: B1 VH with L34I, D60N
VL: B1 VL with W98F
B4: Mutation 4 (antibody)
heavy: QVQLQQPGAELVKPGASVRLSCQTSVDTFSTYYWYWVKQRPGEGLEWIGGVNPTSNPVFKEKFKSKATLTVDTSSSTAYMQLSSLTSVDSAVYYCTRSILRRGYYEDYWGQGTALTVSSAKTTPPSVYPLAPGSAAQTNSMVTLGCLVKGYFPEPVTVTWNSGSLSSGVHTFPAVLQSDLYTLSSSVTVPSSTWPSETVTCNVAHPASSTKVDKKIVPRDCGCKPCICTVPEVSSVFIFPPKPKDVLTITLTPKVTCVVVDISKDDPEVQFSWFVDDVEVHTAQTQPREEQFNSTFRSVSELPIMHQDWLNGKEFKCRVNSAAFPAPIEKTISKTKGRPKAPQVYTIPPPKEQMAKDKVSLTCMITDFFPEDITVEWQWNGQPAENYKNTQPIMDTDGSYFVYSKLNVQKSNWEAGNTFTCSVLHEGLHNHHTEKSLSHSPGK
light: DIQMTQTTSSLSASLGDRVTISCRLSQDIQNYVNWYQQKPDGTIKLLIYSTSRLQSGIPSRFSGSGSGTDYSLTIANLEQEDIATYFCQQDDTIPVTEGAGTKVELKRADAAPTVSIFPPSSEQLTSGGASVVCFLNNFYPKDINVKWKIDGSERQNGVLNSWTDQDSKDSTYSMSSTLTLTKDEYERHNSYTCEATHKTSTSPIVKSFNRNEC
B5: Mutation 5 (antibody)
heavy: B4 heavy with W34S, K60Y, E106K
light: B4 light with L25I, S50P, E98R
B6: Mutation 3 (antibody)
heavy: B4 heavy with W34A, K60D, E106Q
light: B4 light with L25G, S50Y, E98Y
B7: Mutation 1-14 (antibody, V domains shown)
VH: B1 VH with D27E, L34I, V51L, D60N, I99V, L100I, P106F
VL: B1 VL with G25A, V33L, F50Y, Q55H, I58L, I94V, V96L, W98F
notes: Mutation 1 background; CDRs built
B8: Mutation 1-11 (antibody, V domains shown)
VH: QVQLQQPGAELVKPGASVRLSCQTSVNTFTTYYIYWVKQRPGEGLEWIGGLNPTSGGPVFNEKFKSKATLTVDTSSSTAYMQLSSLTSVDSAVYYCTRSIIRRGYYFDYWGQGTALTVSS
VL: B1 VL with G25A, Q30N, V33I, F50Y, I58L, V96L, W98F
notes: as for B7
B9: Mutation 1-13 (antibody, V domains shown)
VH: B1 VH with S30T, L34I, V51I, D60N, I99V, L100V, P106F
VL: B1 VL with G25A, Q30N, F50Y, Q55H, I58V, I94V, V96I, W98F
notes: as for B7
B10: Mutation 1-15 (antibody, V domains shown)
VH: B8 VH with N27E, L51V, I100L, I101L
VL: B1 VL with G25A, Q30N, V33L, F50Y, Q55N, I94L, W98F
notes: as for B7
B11: WT 1-4 (antibody, V domains shown)
VH: B8 VH with T30S, I34L, L51I, N61D, I100V, I101V, F107P
VL: B1 VL with V33I, Q55H, I58V, I94V, V96I
notes: WT background; CDRs built
B12: WT 1-7 (antibody, V domains shown)
VH: B1 VH with S30T, V51I, I99L, L100V
VL: B1 VL with Q30N, Q55N, I58V, I94L, V96I
notes: WT background; CDRs built
B13: WT 1-1 (antibody, V domains shown)
VH: B1 VH with S30T, V51I, L100V
VL: B1 VL with Q30N, I58V, V96I
notes: WT background; CDRs built
B14: WT 1-3 (antibody, V domains shown)
VH: B8 VH with N27E, I34L, L51V, N61D, I100V, I101L, F107P
VL: B1 VL with Q30N, V33L, Q55H, I94V
notes: WT background; CDRs built
B15: WT 1-5 (antibody, V domains shown)
VH: B8 VH with I34L, N61D, I100V, F107P
VL: B1 VL with Q30N, V33I, Q55H, I58L, I94V, V96L
notes: WT background; CDRs built
B16: WT 1-2 (antibody, V domains shown)
VH: B1 VH with D27E, V51L, L100I
VL: B1 VL with V33L, I58L, V96L
notes: WT background; CDRs built
B17: WT 1-6 (antibody, V domains shown)
VH: B1 VH with I99L
VL: B1 VL with Q55N, I94L
notes: WT background; CDRs built
B18: WT 1-8 (antibody, V domains shown)
VH: B1 VH with D27E, V51L, I99L, L100I
VL: B1 VL with V33L, Q55N, I58L, I94L, V96L
notes: WT background; CDRs built
B19: WT 1-9 (antibody, V domains shown)
VH: B8 VH with N27E, I34L, L51V, N61D, I101L, F107P
VL: B1 VL with Q30N, V33L
notes: WT background; CDRs built

By Kd is commonly meant a measure of binding affinity in units of concentration. Lower therefore signals tighter binding. Usually koff stands for a measure of how fast the partners let go of each other. Read a high koff as fast dissociation. For orientation: kon means a measure of how fast the partners come together. Higher therefore signals faster complex formation.

Positions count from the first letter of the chain named.

The first assay deals with T1, Taq DNA polymerase (Thermus aquaticus, UniProt P19821 1-832).
T1 construct: also called Taq enzyme; Taq DNA enzyme
T1 sequence (P19821 whole entry): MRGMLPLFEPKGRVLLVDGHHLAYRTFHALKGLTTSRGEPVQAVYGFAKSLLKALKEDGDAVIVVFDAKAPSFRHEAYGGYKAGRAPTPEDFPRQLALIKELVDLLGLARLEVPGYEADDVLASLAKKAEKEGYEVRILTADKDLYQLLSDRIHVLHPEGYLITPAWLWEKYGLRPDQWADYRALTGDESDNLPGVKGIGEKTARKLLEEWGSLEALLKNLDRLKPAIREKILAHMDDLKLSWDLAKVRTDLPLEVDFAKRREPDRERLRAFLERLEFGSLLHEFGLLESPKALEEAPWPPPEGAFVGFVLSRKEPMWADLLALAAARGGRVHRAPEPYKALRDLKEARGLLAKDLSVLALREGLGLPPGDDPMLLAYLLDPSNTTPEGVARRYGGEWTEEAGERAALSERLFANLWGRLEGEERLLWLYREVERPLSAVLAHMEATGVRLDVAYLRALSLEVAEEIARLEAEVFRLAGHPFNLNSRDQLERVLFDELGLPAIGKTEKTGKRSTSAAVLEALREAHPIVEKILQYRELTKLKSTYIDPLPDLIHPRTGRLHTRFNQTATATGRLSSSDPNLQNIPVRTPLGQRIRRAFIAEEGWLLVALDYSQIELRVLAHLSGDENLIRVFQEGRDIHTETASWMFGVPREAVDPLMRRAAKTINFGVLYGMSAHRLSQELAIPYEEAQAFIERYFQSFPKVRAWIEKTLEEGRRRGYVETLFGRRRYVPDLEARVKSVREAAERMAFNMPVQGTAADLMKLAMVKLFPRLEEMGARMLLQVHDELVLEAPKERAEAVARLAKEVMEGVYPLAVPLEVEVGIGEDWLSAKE
The assay is described as follows: ELISA on coated Taq, antibody 0 ng/ml (blank). As for the experimental part:
(§1) The antibody activity was detected after mutation. Taq DNA enzyme was diluted with coating solution to the specified concentration, 100 μL per well overnight at 4° C.; which was washed twice with washing solution and patted dry on the next day; with addition of blocking solution (20% BSA+80% PBS), 120 μL per well at 37° C. for 1 h and patted dry; added the diluted Taq monoclonal antibodies, 100 μL/well at 37° C. for 30 min (partial supernatant for 1 h); washed 5 times with washing solution and patted dry; added goat anti-mouse IgG-HRP at 100 μL per well at 37° C. for 30 min; washed 5 times with washing solution and patted dry; added color developing solution A (50 μL/well), added color developing solution B (50 μL/well) for 10 min; added stop solution, 50 μL/well; followed by reading the OD value at 450 nm (reference 630 nm) on the microplate reader.
In the case of B1, the “OD 450 nm” value worked out at 0.035 OD.

For the molecule B2, the “OD 450 nm” value was found to be 0.047 OD.

For the molecule B3, the “OD 450 nm” value was 0.05 OD.

Another assay concerns the target T1, Taq DNA polymerase. The experiment in a line: ELISA on coated Taq, antibody 1.37 ng/ml. On the procedure:
as §1
For orientation: An ELISA detects its analyte on a solid surface through an enzyme-linked reagent.
In the case of B1, the “OD 450 nm” value was determined as 0.798 OD.

With B2, the “OD 450 nm” value came out at 0.887 OD.

As to B4, the “OD 450 nm” value worked out at 0.057 OD.

For B5, the “OD 450 nm” value amounted to 0.054 OD.

With B3, the “OD 450 nm” value was 0.514 OD.

In the case of B6, the “OD 450 nm” value amounted to 0.067 OD.

A further assay has as its target T1, Taq DNA polymerase. The assay is described as follows: AMC sensor, antibody immobilised.
B7 registered a Kd of 0.229 nM, a koff of 1.92e-05 s⁻¹ and a kon of 84100 M⁻¹ s⁻¹.

On to B8, for which the Kd came to 0.613 nM, the koff is 3.06e-05 s⁻¹ and the kon is 50000 M⁻¹ s⁻¹.

In turn, B9 showed a Kd of 0.407 nM, a koff of 2.52e-05 s⁻¹ and a kon of 61700 M⁻¹ s⁻¹.

As to B10, the Kd amounted to 0.12 nM, the koff was 5.72e-06 s⁻¹ and the kon is 47600 M⁻¹ s⁻¹.

B2 gave a Kd of 0.384 nM, a koff of 3.78e-05 s⁻¹ and a kon of 98300 M⁻¹ s⁻¹.

The next assay concerns the target T1, Taq DNA polymerase. The assay is described as follows: ELISA on coated Taq, antibody 37.04 ng/ml. On the procedure: as §1
Consider B1, for which the “OD 450 nm” value was 2.3 OD.

Regarding B2, the “OD 450 nm” value came to 2.38 OD.

Turning to B4, the “OD 450 nm” value stood at 1.38 OD.

Take B5: the “OD 450 nm” value stood at 1.41 OD.

B3: the “OD 450 nm” value was determined as 2.05 OD.

As for B6, the “OD 450 nm” value was 1.78 OD.

The next assay deals with T1, Taq DNA polymerase. The experiment in a line: ELISA on coated Taq, antibody 0.46 ng/ml. As for the experimental part:
as §1
For B1, the “OD 450 nm” value was found to be 0.399 OD.

Take B2: the “OD 450 nm” value stood at 0.442 OD.

In the case of B3, the “OD 450 nm” value stood at 0.059 OD.

A further assay has as its target T1, Taq DNA polymerase. The assay is described as follows: ELISA on coated Taq, antibody 12.35 ng/ml. As for the experimental part:
as §1
With B1, the “OD 450 nm” value was 2.1 OD.

Turning to B2, the “OD 450 nm” value was 2.14 OD.

For the molecule B4, the “OD 450 nm” value was 0.679 OD.

On to B5, for which the “OD 450 nm” value is 0.701 OD.

Regarding B3, the “OD 450 nm” value was 1.84 OD.

Consider B6, for which the “OD 450 nm” value stood at 0.874 OD.

The next assay deals with T1, Taq DNA polymerase. The assay is described as follows: AMC sensor, antibody immobilised. This is another data set of the same source.
Regarding B1, the Kd is 2.46 nM, the koff worked out at 0.000145 s⁻¹ and the kon was determined as 59000 M⁻¹ s⁻¹.

B2 had a Kd of 0.384 nM, a koff of 3.78e-05 s⁻¹ and a kon of 98300 M⁻¹ s⁻¹.

In turn, B3 had a Kd of 0.99 nM, a koff of 5.87e-05 s⁻¹ and a kon of 59200 M⁻¹ s⁻¹.

In turn, B6 returned a Kd of 20.7 nM, a koff of 0.00135 s⁻¹ and a kon of 65500 M⁻¹ s⁻¹.

The next assay concerns the target T1, Taq DNA polymerase. The assay is described as follows: ELISA on coated Taq, antibody 4.12 ng/ml. On the procedure:
as §1
B1: the “OD 450 nm” value stood at 1.58 OD.

Turning to B2, the “OD 450 nm” value was found to be 1.7 OD.

For the molecule B4, the “OD 450 nm” value was 0.354 OD.

In the case of B5, the “OD 450 nm” value worked out at 0.362 OD.

Consider B3, for which the “OD 450 nm” value is 1 OD.

In the case of B6, the “OD 450 nm” value stood at 0.45 OD.

For the next assay, the target named is T1, Taq DNA polymerase. The assay is described as follows: AMC sensor, antibody immobilised. This is another data set of the same source.
B1 came in with a Kd of 2.46 nM, a koff of 0.000145 s⁻¹ and a kon of 59000 M⁻¹ s⁻¹.

The molecule B11 registered a Kd of 4.1 nM, a koff of 0.000362 s⁻¹ and a kon of 88400 M⁻¹ s⁻¹.

Take B12: the affinity, expressed as Kd, was 3.42 nM; the koff was found to be 0.000296 s⁻¹; the kon is 86700 M⁻¹ s⁻¹.

Molecule B13 yielded a Kd of 4.65 nM, a koff of 0.000273 s⁻¹ and a kon of 58800 M⁻¹ s⁻¹.

In the case of B14, the Kd is 2.3 nM, the koff was determined as 0.00011 s⁻¹ and the association rate constant (kon) is 48000 M⁻¹ s⁻¹.

Regarding B15, the Kd turned out to be 5.13 nM, the koff stood at 0.000314 s⁻¹ and the kon stood at 61200 M⁻¹ s⁻¹.

B16 yielded a Kd of 3.41 nM, a koff of 0.000166 s⁻¹ and a kon of 48500 M⁻¹ s⁻¹.

Consider B17, for which the Kd turned out to be 6.65 nM, the koff is 0.000506 s⁻¹ and the kon came out at 76100 M⁻¹ s⁻¹.

The molecule B18 gave a Kd of 3.02 nM, a koff of 9.85e-05 s⁻¹ and a kon of 32600 M⁻¹ s⁻¹.

In the case of B19, the affinity, expressed as Kd, was 8.57 nM; the koff stood at 0.000433 s⁻¹; the kon turned out to be 50500 M⁻¹ s⁻¹.
